Source: patent US8198236B2, “Methods and compositions for the treatment of cancer” (Washington University, priority 2007, dated 2012)

Assays:
[1] = target: T1, LRP6 (Homo sapiens, UniProt O75581); test: LRP6-mediated 125I-Mesd degradation in LRP6-transduced HT1080 cells; type: cell-based; details: 4 hours at 37° C.
T1 construct: expressed in transfected cells; host or cells: human HT1080 cells, retroviral vector pLNCX2
Method: Ligand degradation was performed using the methods as described in Li, Y., et al., J. Biol. Chem. 275: 17187-17194, 2000. Briefly, 2×10^5 cells were seeded into 12-well dishes 1 day prior to assay. Pre-warmed assay buffer (minimal Eagle's medium containing 0.6% BSA with radioligand, 0.6 ml/well) was added to cell monolayers in the absence or the presence of unlabeled 500 nM RAP or 500 nM Mesd, followed by incubation for 4 hours at 37° C. Thereafter, the medium overlying the cell monolayers was removed and proteins were precipitated by addition of BSA to 10 mg/ml and trichloroacetic acid to 20%. Degradation of radioligand was defined as the appearance of radioactive fragments in the overlying medium that were soluble in 20% trichloroacetic acid. Kinetic analysis of endocytosis LRP6-transduced HT1080 cells were plated in 12-well plates at a density of 2×10^5 cells/well and used after overnight culture. Cells were rinsed twice in ice-cold assay buffer (minimal Eagle's medium containing 0.6% BSA), and ^125I-anti-HA IgG was added at 1 nM final concentration in cold assay buffer (0.5 ml/well). The binding of ^125I-anti-HA IgG was carried out at 4° C. for 90 minutes with gentle rocking Unbound ^125I-anti-HA IgG was removed by washing cell monolayers three times with cold assay buffer. Ice-cold stop/strip solution (0.2 M acetic acid, pH 2.6, 0.1 M NaCl) was added to one set of plates without warming up and kept on ice. The remaining plates were then placed in a 37° C. water bath and 0.5 ml assay buffer prewarmed to 37° C. was quickly added to cell monolayers to initiate internalization. After each time point, the plates were quickly placed on ice and the assay buffer was replaced with cold stop/strip solution. ^125I-anti-HA IgG that remained on the cell surface was stripped by incubation of cell monolayers with cold stop/strip solution for a total of 20 minutes (0.75 ml for 10 minutes, twice) and counted. Cell monolayers were then solubilized with low-SDS lysis buffer and counted. […] The fraction of internalized ^125I-anti-HA IgG after each time point was calculated and plotted. […]

[2] = Pharmacokinetics of 125I-labeled Mesd or Mesd peptide, intravenous or subcutaneous
Method: In experiments shown in FIG. 23, pharmacokinetics of Mesd peptide and Mesd were examined. FIG. 23A: Amount of Mesd in serum following a single dose of protein administration. Mice were dosed at 5, 10, 20 mg/kg of Mesd via i.p. and the serum samples were collected from individual mice at the indicated time points. The levels of Mesd in serum were quantified by comparison to Mesd pure protein with known concentrations in Western blot analysis. Values are the average of triple determinations with S.D. indicated by error bars. […] Samples were obtained by terminal bleed under anesthesia at each of the indicated time points (N=3 animals per time point). Radioactivity was measured using a gamma counter and DPM converted to mass units/mL blood using the specific activity (DPM/mass) of each test substance. Data are plotted as mass U/mL of test substance with standard deviation indicated by error bars.

[3] = tested on: MMTV-Wnt1 tumors; test: MMTV-Wnt1 tumor transplant growth in nude mice; type: in vivo; details: i.p. every other day, first dose 15 mg/kg then 10 mg/kg, three weeks
Method: Recombinant Mesd protein was prepared as described (Li Y, et al. (2005) J Cell Sci 118(22): 5305-5314). Mesd peptide, […] (SEQ ID NO: 14), was manufactured by Abgent (San Diego). Female athymic nude mice (Taconic) (6-8 weeks old) were used for passaging tumors from MMTV-Wnt1 mice (Taconic). MMTV-Wnt1 tumors were serially passaged in mice by implantation in the mammary fat pad as described (DeAlmeida V, et al. (2007) Cancer Res 67, 5371-5379). Therapeutic agents (200 μL Mesd protein, Mesd peptide or PBS) were administrated i.p. with a first dose of 15 mg/kg, followed by 10 mg/kg (9 more doses). Three groups of mice were treated every other day for three weeks and tumor volumes were measured thrice weekly.
The pharmacokinetics and bioavailability of Mesd and Mesd peptide ([…] (SEQ ID NO: 14)) were first investigated (FIG. 23). Cells from MMTV-Wnt1 tumors were injected into the mammary fat pads of female nude mice, and the resultant mice were subsequently randomly grouped when the mean tumor volume reached ca. 200 mm^3. […]
In these experiments, mice bearing established MMTV-Wnt1 tumor transplants were divided into three groups (five animals per group) and were i.p. injected with PBS (vehicle), Mesd, or Mesd peptide every other day. Tumor volume was analyzed using caliper measurement. […]

T1 sequence (O75581 20-1613): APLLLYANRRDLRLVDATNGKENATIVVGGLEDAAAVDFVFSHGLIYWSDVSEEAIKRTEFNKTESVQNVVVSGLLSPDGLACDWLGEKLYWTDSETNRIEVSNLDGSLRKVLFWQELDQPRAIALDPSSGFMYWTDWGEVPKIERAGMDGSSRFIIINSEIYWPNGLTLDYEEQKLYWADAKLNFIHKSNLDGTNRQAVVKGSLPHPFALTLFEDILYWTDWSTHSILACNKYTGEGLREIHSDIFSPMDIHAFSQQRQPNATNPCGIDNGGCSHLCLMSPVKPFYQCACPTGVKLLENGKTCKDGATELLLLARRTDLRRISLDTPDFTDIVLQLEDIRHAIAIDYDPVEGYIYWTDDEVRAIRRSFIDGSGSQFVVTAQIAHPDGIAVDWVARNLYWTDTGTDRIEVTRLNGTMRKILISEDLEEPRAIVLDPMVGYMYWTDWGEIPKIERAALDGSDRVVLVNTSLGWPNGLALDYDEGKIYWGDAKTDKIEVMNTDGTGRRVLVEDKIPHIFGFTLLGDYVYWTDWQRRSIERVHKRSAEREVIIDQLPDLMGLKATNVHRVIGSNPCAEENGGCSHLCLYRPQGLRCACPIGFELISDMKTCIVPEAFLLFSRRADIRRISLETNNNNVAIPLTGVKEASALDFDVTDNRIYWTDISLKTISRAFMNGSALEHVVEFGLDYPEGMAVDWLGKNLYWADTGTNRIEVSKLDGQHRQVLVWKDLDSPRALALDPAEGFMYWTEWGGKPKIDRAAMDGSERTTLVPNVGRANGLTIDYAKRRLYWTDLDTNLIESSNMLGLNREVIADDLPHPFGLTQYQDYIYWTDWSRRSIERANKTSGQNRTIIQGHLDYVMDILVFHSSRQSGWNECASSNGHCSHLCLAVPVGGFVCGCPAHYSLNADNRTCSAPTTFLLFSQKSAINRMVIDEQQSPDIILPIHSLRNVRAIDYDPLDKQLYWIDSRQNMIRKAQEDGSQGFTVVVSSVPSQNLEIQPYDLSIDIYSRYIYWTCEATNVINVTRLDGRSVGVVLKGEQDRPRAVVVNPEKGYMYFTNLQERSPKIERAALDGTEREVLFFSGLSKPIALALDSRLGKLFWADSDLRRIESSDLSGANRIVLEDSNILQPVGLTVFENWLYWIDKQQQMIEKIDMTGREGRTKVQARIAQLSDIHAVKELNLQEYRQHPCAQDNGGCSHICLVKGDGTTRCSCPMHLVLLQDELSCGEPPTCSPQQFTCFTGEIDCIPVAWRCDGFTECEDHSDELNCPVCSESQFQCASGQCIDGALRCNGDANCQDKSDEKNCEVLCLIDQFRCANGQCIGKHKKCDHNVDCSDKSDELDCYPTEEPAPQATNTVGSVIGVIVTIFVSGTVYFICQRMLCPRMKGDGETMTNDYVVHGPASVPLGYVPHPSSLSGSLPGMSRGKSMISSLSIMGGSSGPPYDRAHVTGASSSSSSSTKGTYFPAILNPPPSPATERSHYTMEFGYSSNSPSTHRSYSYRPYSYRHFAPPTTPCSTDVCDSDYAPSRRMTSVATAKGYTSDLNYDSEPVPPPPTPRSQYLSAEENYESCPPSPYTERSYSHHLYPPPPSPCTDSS

B1: Mesd: Recombinant full-length mouse Mesd expressed in E. coli, N-terminal polyhistidine tail, lacking the signal peptide (protein)
chain: ADTPGEATPPPRKKKDIRDYNDADMARLLEQWEKDDDIEEGDLPEHKRPSAPIDFSKLDPGKPESILKMTKKGKTLMMFVTVSGNPTEKETEEITSLWQGSLFNANYDVQRFIVGSDRAIFMLRDGSYAWEIKDFLVSQDRCAEVTLEGQMYPGKGGGSKEKNKTKPEKAKKKEGDRKPRASKEDNRAGSRREDL
modifications: left off: small tags and cut ends
notes: Recombinant full-length mouse Mesd expressed in E. coli, N-terminal polyhistidine tail, lacking the signal peptide
- 125I-Mesd degradation ([1]; 5 nM): 320 fmoles/mg cell protein
- Inhibition of 125I-Mesd degradation ([1]; 500 nM unlabeled competitor): completely
- Bioavailability ([2]; intravenous (tail vein) or subcutaneous): 60%
- Distribution into tissues ([2]; thyroid/parathyroid, liver, kidney, stomach, gastrointestinal tract): rapid and widespread
- Tumor growth (tumor volume, caliper) [3]: significantly inhibit tumor growth
